Publication PMC7163869

B1: Cattle Δmoo Mxra8 ectodomain (domain or fragment)
chain: VLLSSGPSGPATSDRSVVSESTVSWAAGARAVLRCQSPRMVWTQDRLHDRQRVVHWDLSGSKAGGPARRLVDMYSTGEQRVYEPRDRGRLLLPPSAFHDGNFSLFIRAVEETDEGLYTCNLHHHYCHLYESLAVSLEVTDDPRAAGAHWDGEKEVLAVERGAPALLTCVNRAHVWTDRHLEEAQQVVHWDRQPPGVPHDRADRLLDLYASGERRAYGPPFLRDRVAVEADAFARGDFSLLIDPVEPADEGTYSCHLHHHYCGLHERRVFHLRVTEPAARPPPPPRDSPGNGSSHSGAPGPGARDPTLTRGRSVINVIVPEGRAHFFQQ

Biological target: Chikungunya virus-like particles (strain 37997) (chikungunya virus (strain 37997))
Assay: BLI

Row | Molecule | Kd
1 | Mouse Mxra8 ectodomain 23-296 (from UniProt Q9DBV4 23-296) (domain or fragment) | 66.4 nM
2 | B1 | 72.3 nM
